From US20240309087A1 (SHANGHAI JUNSHI BIOSCIENCES, published 2024)
Where “and” joins values, the source holds several entries; their conditions need not be identical. Equal entries are not always repeated.

Tests used:
[1] = target: T1, human CD112R on Jurkat CD112R effector cells (human, UniProt Q6DKI7 1-326); assay: cell-based or functional assay
T1 sequence (looked up): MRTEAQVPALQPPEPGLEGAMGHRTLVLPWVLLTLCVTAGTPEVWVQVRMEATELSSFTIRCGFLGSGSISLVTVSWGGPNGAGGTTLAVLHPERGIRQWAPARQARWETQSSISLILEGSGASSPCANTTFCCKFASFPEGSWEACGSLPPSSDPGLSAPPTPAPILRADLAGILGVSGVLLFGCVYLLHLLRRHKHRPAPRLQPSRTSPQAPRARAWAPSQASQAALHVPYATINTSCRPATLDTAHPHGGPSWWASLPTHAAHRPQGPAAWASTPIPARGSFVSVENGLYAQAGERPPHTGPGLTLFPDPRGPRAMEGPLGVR

[2] = target: T2, hCD112R mFC recombinant protein (human; murine, UniProt Q6DKI7 41-160); assay: FACS competition, hCD112R mFc on CHO CD112 cells
T2 construct: range 41-160; expressed in 293E cells; also called hCD112R ECD mFC; hCD112R-ECD-mFC; not shown: murine IgG2a Fc domain (MX2-mFc vector)
T2 sequence (looked up): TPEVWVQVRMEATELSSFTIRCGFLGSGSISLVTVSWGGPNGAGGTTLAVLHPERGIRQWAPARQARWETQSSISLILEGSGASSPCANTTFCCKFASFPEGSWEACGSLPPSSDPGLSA
Experimental: Cells CHO CD112 overexpressing human CD112 were co-incubated with a hCD112R mFc protein solution (5 μg/mL) prepared in a staining buffer (PBS+1% FBS), and the humanized anti-CD112R antibodies or the control antibodies at different concentrations (initial concentration: 100 μg/mL, 3-fold dilution, 10 concentration gradients) at 4° C. for 30 min. Unbound antibodies were then washed with a staining buffer and the cells were incubated with 1% (v/v) goat anti-mouse IgG Fc fluorescent secondary antibodies (Jackson ImmunoResearch) prepared in a staining buffer at 4° C. for 30 min in the dark. Finally, the cells were collected by using a flow cytometer (BD Canto II), and the fluorescent antibodies bound to the cell surface were detected. Raw data were analyzed by using FlowJo to obtain MFI values, and a four-parameter curve fitting was performed by using GraphPad Prism software to obtain IC₅₀ values. The positive control and the negative control were COM701 (anti-CD112R antibody, Compugen, obtained by expression and purification according to the sequences in US20180280506A1) and the anti-KLH hu-IgG4 antibody, respectively.

[3] = target: T2, hCD112R mFC recombinant protein; assay: ELISA, coated hCD112R-ECD-mFC
Experimental: (§1) A plate was coated with a hCD112R-ECD-mFC protein (1.5 μg/mL) at a fixed concentration, and the humanized anti-CD112R antibodies diluted in a gradient (initial concentration: 1 μg/mL, 2.5-fold gradient dilution, 12 concentration gradients in total) were added to bind to the antigen. HRP-conjugated goat anti-human antibody IgG (Fc specific) (Sigma, A0170) was subjected to a 5000-fold dilution and used as a detection antibody for detection. The color development was performed with 0.1 mg/mL TMB, and finally stopped with 2 M hydrochloric acid. The plate was read at 420 nm/620 nm. EC₅₀ was obtained by fitting with a four-parameter logistic regression (4PL) model. The […] were COM701 (anti-CD112R antibody, Compugen, obtained by expression and purification according to the sequences in US20180280506A1) and the anti-KLH hu-IgG4 antibody.

[4] = target: T2, hCD112R mFC recombinant protein; assay: ELISA, coated hCD112R-ECD-mFC; EC50 COM701/EC50 antibody
Experimental: as §1

B1: Hu37 (antibody, IgG4, V domains shown)
VH: EVQLVESGGGLVQPGGSLRLSCAASGFTFSSYHMSWVRQAPGKGLELVSAINSNVISTYYLDTVKGRFTISRDNAKNSLYLQMNSLRAEDTAVYYCARHEDYYGFAMDYWGQGTLVTVSS
VL: DIVMTQSPDSLAVSLGERATINCKASQSVTNDVAWYQQKPGQPPKLLIYYVSNHYTGVPDRFSGSGSGTDFTLTISSLQAEDVAVYFCQQAYRSPWTFGQGTKLEIK
Question: For B1, which “EC50, CD112R/CD112 reporter” value [1] is on record?
Answer: Its value is 0.0355 µg/mL.

Question: What about the “Relative activity (%), EC50 COM701/EC50 antibody” value [1] of the same binder?
Answer: The value was 182%.

B2: Hu18 (antibody, IgG4, V domains shown)
VH: EVQLVESGGGLVKPGGSLRLSCAASGFTFSSYHMSWVRQAPGKGLELVSAISRDGDSTYYPDTVKGRFTISRDNAKNSLYLQMNSLRAEDTAVYYCSRHEDYFGFAMDSWGQGTLVTVSS
VL: EIVMTQSPPTLSLSPGERVTLSCKASQSVSNDVAWYQQKPGQAPRLLIYYVSNRFTGIPARFSGSGSGTDFTLTISSLQPEDFAVYFCQQAYRSPWTFGQGTKLEIK
notes: humanized IgG4
Question: B2 was tested. Which IC50 [2] did it give?
Answer: The IC50 was 3.39 µg/mL and 2.51 µg/mL.

Question: What about the EC50 [3] of the same binder?
Answer: The EC50 was 0.00466 µg/mL.

Question: What about the “EC50, CD112R/CD112 reporter” value [1] of the same binder?
Answer: The value was 0.0263 µg/mL.

Question: What about the “Relative activity (%), EC50 COM701/EC50 antibody” value [1] of the same binder?
Answer: Its value is 209%.

Question: What about the “Relative activity (%)” value [4] of the same binder?
Answer: The value was 122%.

B3: Hu41 (antibody, IgG4, V domains shown)
VH: EVQLVESGGGLVQPGGSLRLSCAASGFTFSSYHMSWVRQAPGKGLELVSAINSNVISTYYLDTVKGRFTISRDNAKNSLYLQMNSLRAEDTAVYYCARHEDYYGFAMDYWGQGTLVTVSS
VL: DIQMTQSPSSLSASVGDRVTITCKASQSVSNDVAWYQQKPGKAPKLLIYYVSNRFTGVPSRFSGSGSGTDFTLTISSLQPEDFATYFCQQAYRSPWTFGQGTKLEIK
Question: B3 was tested. Which “EC50, CD112R/CD112 reporter” value [1] did it give?
Answer: The value was 0.0267 µg/mL.

Question: What about the “Relative activity (%), EC50 COM701/EC50 antibody” value [1] of the same binder?
Answer: Its value is 243%.

B4: Hu47 (antibody, IgG4, V domains shown)
VH: EVQLVESGGGLVKPGGSLRLSCAASGFTFSSYHMSWVRQAPGKGLELVSAINSNVISTYYLDTVKGRFTISRDNAKNSLYLQMNSLRAEDTAVYYCARHEDYYGFAMDYWGQGTLVTVSS
VL: DIQMTQSPSSLSASVGDRVTITCKASQSVSNDVAWYQQKPGKAPKLLIYYVSNRFTGVPSRFSGSGSGTDFTLTISSLQPEDFATYFCQQAYRSPWTFGQGTKLEIK
Question: How did the “EC50, CD112R/CD112 reporter” value [1] turn out when B4 was run?
Answer: Its value is 0.039 µg/mL.

Question: And the “Relative activity (%), EC50 COM701/EC50 antibody” value [1]?
Answer: Its value is 190%.

B5: Hu42 (antibody, IgG4, V domains shown)
VH: EVQLVESGGGLVQPGGSLRLSCAASGFTFSSYHMSWVRQAPGKGLELVSAINSNVISTYYLDTVKGRFTISRDNAKNSLYLQMNSLRAEDTAVYYCARHEDYYGFAMDYWGQGTLVTVSS
VL: EIVMTQSPPTLSLSPGERVTLSCKASQSVSNDVAWYQQKPGQAPRLLIYYVSNRFTGIPARFSGSGSGTDFTLTISSLQPEDFAVYFCQQAYRSPWTFGQGTKLEIK
Question: Which results are given for B5?
Answer: EC50, CD112R/CD112 reporter [1]: 0.0355 µg/mL; Relative activity (%), EC50 COM701/EC50 antibody [1]: 183%

B6: Hu48 (antibody, IgG4, V domains shown)
VH: EVQLVESGGGLVKPGGSLRLSCAASGFTFSSYHMSWVRQAPGKGLELVSAINSNVISTYYLDTVKGRFTISRDNAKNSLYLQMNSLRAEDTAVYYCARHEDYYGFAMDYWGQGTLVTVSS
VL: EIVMTQSPPTLSLSPGERVTLSCKASQSVSNDVAWYQQKPGQAPRLLIYYVSNRFTGIPARFSGSGSGTDFTLTISSLQPEDFAVYFCQQAYRSPWTFGQGTKLEIK
Question: With B6 as the binder, how does the “EC50, CD112R/CD112 reporter” value [1] read?
Answer: The value was 0.0421 µg/mL.

Question: What about the “Relative activity (%), EC50 COM701/EC50 antibody” value [1] of the same binder?
Answer: The value was 176%.

B7: Hu38 (antibody, IgG4, V domains shown)
VH: EVQLVESGGGLVQPGGSLRLSCAASGFTFSSYHMSWVRQAPGKGLELVSAINSNVISTYYLDTVKGRFTISRDNAKNSLYLQMNSLRAEDTAVYYCARHEDYYGFAMDYWGQGTLVTVSS
VL: AIQMTQSPSSLSASVGDRVTITCKASQSVTNDVAWYQQKPGKAPKLLIYYVSNHYTGVPSRFSGSGSGTDFTLTISSLQPEDFATYFCQQAYRSPWTFGQGTKLEIK
Question: Which “EC50, CD112R/CD112 reporter” value [1] does the source give for B7 here?
Answer: The value was 0.0337 µg/mL.

Question: What about the “Relative activity (%), EC50 COM701/EC50 antibody” value [1] of the same binder?
Answer: The value was 192%.

B8: Hu40 (antibody, IgG4, V domains shown)
VH: EVQLVESGGGLVQPGGSLRLSCAASGFTFSSYHMSWVRQAPGKGLELVSAINSNVISTYYLDTVKGRFTISRDNAKNSLYLQMNSLRAEDTAVYYCARHEDYYGFAMDYWGQGTLVTVSS
VL: DIVMTQSPDSLAVSLGERATINCKASQSVSNDVAWYQQKPGQPPKLLIYYVSHRFTGVPDRFSGSGSGTDFTLTISSLQAEDVAVYFCHQAYRSPWTFGQGTKLEIK
Question: B8 was tested. Which “EC50, CD112R/CD112 reporter” value [1] did it give?
Answer: Its value is 0.0242 µg/mL.

Question: What about the “Relative activity (%), EC50 COM701/EC50 antibody” value [1] of the same binder?
Answer: The value was 227%.

B9: Hu43 (antibody, IgG4, V domains shown)
VH: EVQLVESGGGLVKPGGSLRLSCAASGFTFSSYHMSWVRQAPGKGLELVSAINSNVISTYYLDTVKGRFTISRDNAKNSLYLQMNSLRAEDTAVYYCARHEDYYGFAMDYWGQGTLVTVSS
VL: DIVMTQSPDSLAVSLGERATINCKASQSVTNDVAWYQQKPGQPPKLLIYYVSNHYTGVPDRFSGSGSGTDFTLTISSLQAEDVAVYFCQQAYRSPWTFGQGTKLEIK
Question: Which “EC50, CD112R/CD112 reporter” value [1] does the source give for B9 here?
Answer: The value was 0.0426 µg/mL.

Question: What about the “Relative activity (%), EC50 COM701/EC50 antibody” value [1] of the same binder?
Answer: Its value is 158%.

B10: Hu45 (antibody, IgG4, V domains shown)
VH: EVQLVESGGGLVKPGGSLRLSCAASGFTFSSYHMSWVRQAPGKGLELVSAINSNVISTYYLDTVKGRFTISRDNAKNSLYLQMNSLRAEDTAVYYCARHEDYYGFAMDYWGQGTLVTVSS
VL: EIVMTQSPPTLSLSPGERVTLSCKASQSVSNDVAWYQEKPGQAPRLLIYYVSHRFTGIPARFSGSGSGTDFTLTISSLQPEDFAVYYCHQAYRSPWTFGQGTKLEIK
Question: How did the “EC50, CD112R/CD112 reporter” value [1] turn out when B10 was run?
Answer: The value was 0.0256 µg/mL.

Question: What about the “Relative activity (%), EC50 COM701/EC50 antibody” value [1] of the same binder?
Answer: Its value is 261%.

B11: Hu46 (antibody, IgG4, V domains shown)
VH: EVQLVESGGGLVKPGGSLRLSCAASGFTFSSYHMSWVRQAPGKGLELVSAINSNVISTYYLDTVKGRFTISRDNAKNSLYLQMNSLRAEDTAVYYCARHEDYYGFAMDYWGQGTLVTVSS
VL: DIVMTQSPDSLAVSLGERATINCKASQSVSNDVAWYQQKPGQPPKLLIYYVSHRFTGVPDRFSGSGSGTDFTLTISSLQAEDVAVYFCHQAYRSPWTFGQGTKLEIK
Question: B11 was tested. Which “EC50, CD112R/CD112 reporter” value [1] did it give?
Answer: The value was 0.0269 µg/mL.

Question: What about the “Relative activity (%), EC50 COM701/EC50 antibody” value [1] of the same binder?
Answer: The value was 249%.

B12: Hu44 (antibody, IgG4, V domains shown)
VH: EVQLVESGGGLVKPGGSLRLSCAASGFTFSSYHMSWVRQAPGKGLELVSAINSNVISTYYLDTVKGRFTISRDNAKNSLYLQMNSLRAEDTAVYYCARHEDYYGFAMDYWGQGTLVTVSS
VL: AIQMTQSPSSLSASVGDRVTITCKASQSVTNDVAWYQQKPGKAPKLLIYYVSNHYTGVPSRFSGSGSGTDFTLTISSLQPEDFATYFCQQAYRSPWTFGQGTKLEIK
Question: Which results are given for B12?
Answer: EC50, CD112R/CD112 reporter [1]: 0.0387 µg/mL; Relative activity (%), EC50 COM701/EC50 antibody [1]: 174%

B13: Hu39 (antibody, IgG4, V domains shown)
VH: EVQLVESGGGLVQPGGSLRLSCAASGFTFSSYHMSWVRQAPGKGLELVSAINSNVISTYYLDTVKGRFTISRDNAKNSLYLQMNSLRAEDTAVYYCARHEDYYGFAMDYWGQGTLVTVSS
VL: EIVMTQSPPTLSLSPGERVTLSCKASQSVSNDVAWYQEKPGQAPRLLIYYVSHRFTGIPARFSGSGSGTDFTLTISSLQPEDFAVYYCHQAYRSPWTFGQGTKLEIK
Question: How did the “EC50, CD112R/CD112 reporter” value [1] turn out when B13 was run?
Answer: Its value is 0.0217 µg/mL.

Question: And the “Relative activity (%), EC50 COM701/EC50 antibody” value [1]?
Answer: The value was 254%.
